Results on 22 molecules are retold here after paper PMC314469, “Protein Interaction Networks by Proteome Peptide Scanning” (PLoS Biology, 2004).

T1: Abp1 SH3 (ABP1_YEAST), P15891
T1 chain: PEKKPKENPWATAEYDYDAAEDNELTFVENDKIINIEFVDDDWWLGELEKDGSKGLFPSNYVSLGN

This experiment concerns the target T1, Abp1 SH3 (ABP1_YEAST), P15891. In words: SPOT array.
As for LELVQPLPASKKP [YOL087C 650-662], the normalised SPOT signal, Boehringer light units (BLU); mean over the file's lines of this peptide worked out at 118.
Under LFGSGIGEEAPTKP [YJL095W 372-385] stands 118; under LIARNVRTFKPFKP [YNL213C 178-191], 176; under LIDPRVDPILMRP [YER101C 153-165], 75.9.
Under LEVVKSLYDRPLKP [YGR232W 85-98] stands 63.6; under LILGKMVKWGPLRP [YOL072W 276-289], 404; under LEVPERIPEVLRP [YFL004W 802-814], 14.9.
Molecule LESNSMRGYQPFRP [YBR136W 2029-2042] gave a normalised SPOT signal, Boehringer light units (BLU); mean over the file's lines of this peptide of 250.
Molecule LIPVQELPLLLKP [YML010W 362-374] had a normalised SPOT signal, Boehringer light units (BLU); mean over the file's lines of this peptide of 74.2.
Consider LGIDKRSSTKPTKP [YLR054C 309-322], for which the normalised SPOT signal, Boehringer light units (BLU); mean over the file's lines of this peptide was found to be 188.
In turn, LIKSILNRSVPKRP [YAL017W 1330-1343] came in with a normalised SPOT signal, Boehringer light units (BLU); mean over the file's lines of this peptide of 324.
In turn, LHLEKMKPDLKKP [YOL078W 925-937] yielded a normalised SPOT signal, Boehringer light units (BLU); mean over the file's lines of this peptide of 88.4.
Under LHGNTNAPTPLRP [YPR099C 85-97] stands 69.
The molecule LESSPKKHVSPSRP [YAL028W 269-282] showed a normalised SPOT signal, Boehringer light units (BLU); mean over the file's lines of this peptide of 184.
Under LESLSMLPEIVRP [YLR085C 335-347] stands 118; under LFDGPENVINPLKP [YDR392W 289-302], 35; under LIPELPSPKDLRP [YMR049C 412-424], 81.6.
Under LHQYLSETYGPTKP [YGL174W 3-16] stands 39; under LHYHVIGSNGPAKP [YGR198W 51-64], 60.8.
Regarding LEVVDGSPYGYRP [YLL015W 4-16], the normalised SPOT signal, Boehringer light units (BLU); mean over the file's lines of this peptide was 0.
Under LHLIEILPKLIKP [YMR110C 95-107] stands 110; under LGKVVAVKIIPKKP [YKL048C 110-123], 185.
